B1: interferon gamma-1b: biologic response modifier, single chain polypeptide containing 140 amino acids (Actimmune®) (protein, UniProt P01579 24-161, looked up)
Interferon gamma: QDPYVKEAENLKKYFNAGHSDVADNGTLFLGILKNWKEESDRKIMQSQIVSFYFKLFKNFKDDQSIQKSVETIKEDMNVKFFNSNKKKRDDFEKLTNYSVTDLNVQRKAIHELIQVMAELSPAAKTGKRKRSQMLFRG
modifications: interferon gamma-1b

Assays:
[1] = tested on: hfRPE cells; experiment: BrdU incorporation assay, hfRPE proliferation; format: cell-based, human; settings: data not shown
Protocol: BrdU incorporation was performed as described in Li, R. et al., 2007, Invest Ophthalmol Vis Sci, 48, 5722-5732, incorporated by reference in its entirety herein. IFNγ, TNFα, and IL-1β were obtained from Peprotech, Rocky Hill, N.J., and Universal Type I Interferon (cat: 11200-1) or human interferon beta la were from PBL biomedical laboratories (New Brunswick, N.J.). Cumulative effects were measured by adding VEGF165, EGF and bFGF (Peprotech), and PDGF-BB (R & D Systems) with IFNγ. Anti-human IFNγ R1 blocking antibody (R & D Systems, Minneapolis, Minn.), JAK inhibitor I, AG490, or JAK3 inhibitor II (EMD Biosciences, Gibbstown, N.J.) was added to the cells one hour prior to the addition of IFNγ. SFM was used as the negative control and SFM supplemented with 5% serum was used as positive control. After treatment for 48 hours, RPE cells were incubated with BrdU for 24 hours. The proliferation rate was evaluated using a Cell proliferation ELISA BrdU Kit (Roche, Ind.). Quadruplicate wells were used for each condition and the experiments were repeated at least two times using cell cultures from different donors. Cell viability was evaluated using a Live/Dead Viability/Cytotoxicity Kit (Invitrogen).

[2] = multiple instillations per day for months; literature; cited from earlier work
[3] = Phase I study of topical interferon gamma-1b in CME secondary to uveitis (OCT macular thickness); format: in vivo, human; settings: patients with CME secondary to uveitis, topical instillation(s), OCT post-instillation
Text: To test whether cystoid macular edema (CME), secondary to uveitis, is caused by the disequilibrium of the Jak/Stat and mTor signal transduction pathways in the retinal pigment epithelium (RPE), interferon gamma-1β topically applied in human patients. Five participants with CME secondary to uveitis receive a topical ocular instillation of interferon gamma-1b in a Phase I, non-randomized, prospective, uncontrolled, dose-escalation, single-center study. The study involves a one-time instillation or series of instillations of interferon gamma-1b on the cornea and measurement of a response with optical coherence tomography (OCT) over a three hour period.
A 25% decrease in macular thickness is observed at a post-instillation as compared to baseline. In the study, the first two participants receive one instillation (each instillation contains […] in 0.05 mL solution) on the cornea at time zero, the next two participants receive two instillations, 10 minutes apart, for a total dosage of 20 μg, and the final participant receives three instillations, 10 minutes apart, for a total of 30 μg. OCT will be obtained at −60 minutes, −30 minutes and just before the instillation(s). […]
Participants with CME secondary to uveitis are treated with ocular instillation(s) of interferon gamma-1b. […] The effect on the retinal thickness is measured using OCT measurements as indicated below. […]

Molecule	effect of type I IFN on hfRPE proliferation [1]	side effects reported from topical administration [2]	decrease in (central) macular thickness versus baseline [3] [%]
IFNα	no effect	follicular conjunctivis and conjunctival injection	–
B1	–	–	25

Source: patent publication US9486502B2, “Methods of administering interferon gamma to absorb fluid from the subretinal space” (The United States of America, as represented by the …, priority 2008, dated 2016)
